Measurements: patent US20160146829A1

How the values were obtained:
Redbeads [1] = experiment: flow cytometry of red fluoromagnetic beads specific for alemtuzumab in spiked PBS with 3% BSA; the text words the ug/ml values as concentrations of the beads
Redbeads [2] = experiment: flow cytometry of red fluoromagnetic beads specific for alemtuzumab in PBS with 3% BSA, sample at 0 ug/ml (background of the series)

Mean, FL1-H (sample at 0.1 ug/ml) (Redbeads [1]): 5.69 | Mean, FL1-H (sample at 0.5 ug/ml) (Redbeads [1]): 49.1 | Mean, FL1-H (sample at 1.0 ug/ml) (Redbeads [1]): 94.4 | Mean, FL1-H (sample at 10 ug/ml) (Redbeads [1]): 493 | Median, FL1-H (sample at 0.1 ug/ml) (Redbeads [1]): 5.26 | Median, FL1-H (sample at 0.5 ug/ml) (Redbeads [1]): 36.2 | Median, FL1-H (sample at 1.0 ug/ml) (Redbeads [1]): 74.3 | Median, FL1-H (sample at 10 ug/ml) (Redbeads [1]): 483 | Mean, FL1-H (blank sample at 0.0 ug/ml) (Redbeads [2]): 2.11 | Median, FL1-H (blank sample at 0.0 ug/ml) (Redbeads [2]): 1.68
Substance: alemtuzumab (antibody)
